# “Also recorded” adds a separate entry of the source. Where no end group is shown, it is not given here. The star is where a group is joined. Biotin = O=C1N[C@H]2[C@H](CS[C@H]2CCCCC(=O)*)N1
# B1: synthetic epitope of Hsc71 (GIPPAPRGVPQIEVTF) (peptide)
# peptide: Biotin-GIPPAPRGVPQIEVTF
# notes: Amino acids 463-478 of Hsc71, synthesized with N-terminal biotin
# B2: PanC (DYWDTSWPLLLFGGGC) (peptide)
# peptide: DYWDTSWPLLLFGGGC
# modifications: also: radiolabeled with 99mTc, site not given here, unlabeled form also used
# notes: also called peptide PanC
# How the values were obtained:
# [1] = test system: lung cancer (NCI-H460)
# [2] = test system: prostate cancer (DU-145)
# [3] = test system: CCD-1070Sk (fibroblasts); experiment: Cell internalization of fluorescein labeled peptide (fluorescent microscopy); type: cell-based; settings: fibroblasts CCD-1070Sk; 25 μM peptide, one hour at 37C
# Experimental: (§1) […], DU-145, and CCD-1070Sk were grown in culture as detailed above. Cells were grown on coverslips in 6 well plates. A 25 μM solution of peptide […]-fluorescein (PanF; SEQ ID NO:12) was prepared in modified Eagle's medium. Cell culture media were replaced with 1.6 mL of peptide-containing medium, and the cells were incubated with peptide for one hour at 37C. Medium was removed and cells were washed three times with PBS. Two mL of 2% formaldehyde in PBS was added to each well, and plates were kept on ice for 15 minutes. Cells were washed with cold PBS three times and rinsed with distilled water. Coverslips were mounted with DAPI containing media and viewed with an Olympus BX51 fluorescent microscope and DP70 digital camera with excitation and emission wavelengths of 490 and 520 nm.
# [4] = test system: NCI-H460 (lung cancer); experiment: as above; type: cell-based; settings: 25 μM peptide, one hour at 37C
# Experimental: as §1
# [5] = test system: DU-145 (prostate cancer); experiment: as above; type: cell-based; settings: prostate cancer DU-145; 25 μM peptide, one hour at 37C
# Experimental: as §1
# [6] = molecular target: T1, Hsp70 (Homo sapiens, UniProt P0DMV8); experiment: Binding competition between epitope of Hsc71 and Hsp70 for 99m-Tc labeled PanC; settings: various concentrations of epitope, constant 99m-Tc labeled PanC, 1 hour at room temperature
# T1 construct: purchased BioVision, Mountain View, Calif
# T1 sequence (P0DMV8 whole entry): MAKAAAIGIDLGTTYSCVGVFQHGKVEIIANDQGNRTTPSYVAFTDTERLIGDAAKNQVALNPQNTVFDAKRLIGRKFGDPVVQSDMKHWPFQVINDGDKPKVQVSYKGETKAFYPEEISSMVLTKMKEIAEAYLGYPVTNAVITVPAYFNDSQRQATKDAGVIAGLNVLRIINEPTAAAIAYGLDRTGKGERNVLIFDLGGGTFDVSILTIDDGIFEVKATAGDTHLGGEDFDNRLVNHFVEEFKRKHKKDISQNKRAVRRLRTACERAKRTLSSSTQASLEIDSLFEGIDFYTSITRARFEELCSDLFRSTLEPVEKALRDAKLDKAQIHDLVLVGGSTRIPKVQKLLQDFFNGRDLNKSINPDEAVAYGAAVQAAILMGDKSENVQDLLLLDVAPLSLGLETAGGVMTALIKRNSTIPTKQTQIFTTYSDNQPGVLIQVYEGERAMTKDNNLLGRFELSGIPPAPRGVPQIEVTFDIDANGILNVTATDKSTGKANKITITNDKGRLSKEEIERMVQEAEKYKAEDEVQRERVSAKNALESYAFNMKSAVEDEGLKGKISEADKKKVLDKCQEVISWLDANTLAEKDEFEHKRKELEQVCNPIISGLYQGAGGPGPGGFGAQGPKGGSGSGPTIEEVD
# [7] = molecular target: BSA (Bos taurus, UniProt P02769); experiment: Binding competition control: 99m-Tc labeled PanC on BSA coated wells; settings: various concentrations of epitope, constant 99m-Tc labeled PanC, 1 hour at room temperature
# BSA, sequence (P02769 25-607): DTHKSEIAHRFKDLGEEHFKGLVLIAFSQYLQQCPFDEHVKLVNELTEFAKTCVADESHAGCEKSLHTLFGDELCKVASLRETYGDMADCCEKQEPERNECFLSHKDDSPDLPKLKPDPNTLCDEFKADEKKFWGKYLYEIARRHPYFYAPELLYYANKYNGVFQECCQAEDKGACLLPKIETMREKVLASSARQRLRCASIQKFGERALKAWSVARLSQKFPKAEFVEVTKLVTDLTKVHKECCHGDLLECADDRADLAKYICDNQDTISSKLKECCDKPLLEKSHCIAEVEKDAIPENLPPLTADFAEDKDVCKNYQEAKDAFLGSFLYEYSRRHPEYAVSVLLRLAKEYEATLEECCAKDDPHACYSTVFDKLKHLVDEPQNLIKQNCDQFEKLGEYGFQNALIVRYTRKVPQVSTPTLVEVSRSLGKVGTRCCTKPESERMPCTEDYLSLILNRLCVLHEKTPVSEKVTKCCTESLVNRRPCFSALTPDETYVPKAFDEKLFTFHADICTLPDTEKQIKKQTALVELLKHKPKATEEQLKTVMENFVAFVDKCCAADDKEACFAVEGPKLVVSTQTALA
# [8] = molecular target: B2; experiment: competition: epitope peptide at various concentrations against Hsp70-coated wells for 99mTc-PanC; competitor Hsp70
# Experimental: A 96 well plate was prepared by coating each well with Hsp70 (BioVision, Mountain View, Calif.) or BSA (control) by adding 0.5 μg/well in 100 µL of PBS and incubating overnight at 4C. The next day, each well was washed 3× with PBS. […] At the end of incubation, each well was washed 3× with PBS.
# [9] = molecular target: B1; experiment: 99mTc-PanC (20 nM) with 100 uM biotinylated epitope and unlabeled PanC, Neutravidin bead pull-down, gamma counting
molecule,measurement,setting,value
DYWDTSWPLLLFGGGS(KFAKFAK)3 [PanL],cell death (percent cytotoxicity),[1],dose dependent increase in cell death
same,cell death (percent cytotoxicity),[2],dose dependent increase in cell death
"DYWDTSWPLLLFGGGSK (SEQ ID NO:12; PanF) (Flourescein)-amide (DYWDTSWPLLLFGGGSK-NH2; also: fluorescein label, site not given here)",cellular uptake (internalization) by fluorescent microscopic visualization,[3],significant uptake wasn't seen; also recorded: but not fibroblasts
same,cellular uptake (internalization) by fluorescent microscopic visualization,[4],significant cellular uptake; also recorded: Significant internalization
same,cellular uptake (internalization) by fluorescent microscopic visualization,[5],significant cellular uptake; also recorded: Significant internalization
"GIPPAPRGVPQIEVTF (not fully specified (N-terminus)) [synthetic epitope of Hsc71, Conserved region, amino acids 463-478 of Hsc71]",suppression of PanC binding to Hsp70 by the epitope,[6],suppressed binding of PanC to Hsp70 in a concentration dependent manner
same,suppression of PanC binding to Hsp70 by the epitope,[6]; listed as Hsc71 epitope,interferes with PanC binding to Hsp70 in a concentration dependent manner
same,suppression of PanC binding to albumin (BSA control) by the epitope,[7],suppressed binding of PanC to albumin approximately equally at all concentrations
same,suppression of PanC binding to albumin (BSA control) by the epitope,[7]; listed as Hsc71 epitope,suppresses binding of PanC to BSA approximately equally at all concentrations
B1,binding result,[8],binds
B2,labeled/unlabeled PanC ratio above which binding saturates,[9],> 0.1%

# Source: US20100221183A1, “PEPTIDES FOR TREATING AND DIAGNOSING CANCERS AND METHODS FOR USING THE SAME” (priority 2006, published 2010)
